Results as given in patent publication US6831161B1, “Method of affinity separation and ligands for use therein” (Affibody AB, priority 1998, dated 2004).
Residue numbers refer to the chain shown, from its start.

B1: ABDmut: ABD with Asn28 replaced by leucine, Asn42 by aspartic acid, Asn45 by aspartic acid and Asn46 by lysine (protein)
chain: MKAIFVLNAQHDEAVDANSLAEAKVLALRELDKYGVSDYYKDLIDKAKTVEGVKALIDEILAALP
B2: ABDwt: Wild type Albumin Binding Protein domain from Streptococcus G148 with affinity towards human serum albumin; four asparagine residues (protein)
chain: B1 chain with L28N, D42N, D45N, K46N
B3: ABDmut29-30-33: ABDmut domain containing alanine substitutions at positions 29, 30 and 33 (protein)
chain: B1 chain with R29A, E30A, K33A
B4: ABDmut54-57-58: ABDmut domain containing alanine substitutions at positions 54, 57 and 58 (protein)
chain: B1 chain with K54A, I57A, D58A
B5: ABDmut22-25-26: ABDmut domain containing alanine substitutions at positions 22, 25 and 26 (protein)
chain: B1 chain with E22A, V25A, L26A

What was measured:
HSA [1] = target: T1, HSA (Homo sapiens, UniProt P02768); type: binding; settings: for Kaff (affinity constant, ratio between Kon and Koff): BIAcore 2000, HSA immobilized on CM5 chip
Description: (§1) A BIAcore 2000 instrument (Biacore AB) was used for real time affinity analysis. HSA and IgG were immobilized on two different surfaces of a CM5 sensor chip by amine coupling to the carboxylated dextran layer. This coupling was done according to the manufacturer's recommendation (Biacore AB). The IgG surface was used as a control. The samples were run through a 0.45 μm filter and injected over the surface in a random order at a flow rate of […].
Also, an analysis of the kinetic parameters was performed for the proteins that still remained active. This was done by analysing the binding behaviour in different concentrations and thereafter calculating the binding constants by using BIAevaluation 2.1 software (BIAcore AB). The concentrations used were 40-220 nM for ABDwt, 200-600 nM for ABDmut and 800-1250 nM for the NaOH treated ABDmut.

HSA [2] = target: T1, HSA; assay: Alkaline resistance of affinity columns: HSA capacity after repeated 0.5 M NaOH washes; settings: ligand on Sepharose 4B; 15 cycles of 0.5 M NaOH wash, total exposure over 6 hours; FIG. 6
Method: In order to evaluate the usability of the stabilized HSA-binding protein in biotechnology, two affinity chromatography matrices were prepared; one with the unmutated protein (ABDwt) as a control and the other with the mutated ABD (ABDmut). The matrix used was Sepharose 4B (Amersham Pharmacia Biotech, Uppsala, Sweden) with carbodiimide CMC (Sigma Aldrich, Sweden) as the coupling reagent. ABDwt (4.5 mg) and ABDmut (8.5 mg) were dissolved in 9 ml water separately. 3.5 and 5.0 ml gel was added to ABDwt and ABDmut solutions respectively. Finally 0.38 g of CMC was added to the solutions and they were incubated at room temperature over night. The gels were packed on HR columns (d=5 mm, h=43 mm) and pulsed with 0.5 M ethanolamine, 0.5 M NaCl, pH 8.3 in order to inactivate the matrix and 0.1 M NaAc, 0.5 M NaCl, pH 4 in order to wash unbounded proteins out. After this, the columns were ready to use for affinity purification of HSA.
In order to explore the difference between the ABDwt column and the ABDmut column in respect of stability against alkaline treatment, both columns were repeatedly washed with 0.5 M NaOH. By using the AKTA explorer the columns were loaded with HSA, the protein was eluted by lowering the pH (Stahl et al., (1989) supra) and finally both columns were washed with NaOH. […] The flow rate used was 60 cm/h and the eluted material was collected and analyzed in each round. […]

HSA [3] = target: T1, HSA; assay: Binding characteristics (BIAcore) before and after treatment with 0.5 M NaOH for 24 hours; settings: room temperature, 800 nM on BIAcore, FIG. 5
Method: In order to examine the stability of ABDwt and ABDmut, the binding characteristics were analysed before and after treatment with 0.5 M NaOH in room temperature for 24 hours. Both ABDwt and ABDmut were solubilized in 1×HBS (10 mM HEPES, pH 7.4, 150 mM NaCl, 3.4 mM EDTA, 0.005% P20) to a concentration of 800 nM and analyzed on BIAcore 2000 (Biacore AB, Uppsala, Sweden). In order to determine the activity change after exposure to a very alkaline environment, the proteins were solubilized in 0.5 M NaOH. After incubation in NaOH for 24 hours, the samples were run through a NAP-10 column (Amersham Pharmacia Biotech, Uppsala, Sweden) equilibrated with 30 mM NH4Ac. The protein containing samples were lyophilized and resolubilised in 1×HBS to a concentration of 800 nM in order to be analyzed in the BIAcore 2000.
as §1

HSA [4] = target: T1, HSA; assay: HSA-binding analysis of ABDmut triple mutants on BIAcore; settings: 200 nM, 20 μl/min, immobilised HSA on CM5 chip, FIG. 7
Description: ABDmut22-25-26, ABDmut29-30-33, and ABDmut54-57-58 proteins were produced and purified as described in Example 2. In order to analyse the binding behaviour of the different triple-mutants a BI core 2000 instrument was used. HSA was immobilised on a sensor chip surface of a CM5 sensor chip by amine coupling to the carboxylated dextran layer. As control, a sensor chip surface containing IgG was used. This coupling was done according to the manufacturers recommendation (Biacore AB). The samples of the three proteins were run through a 0.45 μm filter and injected over the surface in a random order at a flow rate of 20 μl/min. The concentration used was 200 nM and all samples were analysed three times. […] In addition, residue 62 could also be used for substitutions.

Molecule	Koff (dissociation rate) (HSA [1]) [L/s]	Kon (rate at which the proteins associate) (HSA [1])	Kaff (affinity constant, ratio between Kon and Koff) (HSA [1])	Column activity (HSA capacity) against NaOH exposure time (HSA [2])	Affinity towards HSA after exposure to alkaline solution (HSA [3])	Ability to bind HSA (sensorgrams) (HSA [4])
B1	0.0012	1.8 × 10^4 l/Ms	1.5 × 10^7 l/M	keeping the activity throughout the experiment	has the affinity preserved	
B2	0.0013	9.0 × 10^4 l/Ms	6.9 × 10^7 l/M		loses the affinity towards HSA	
B3						retain their ability to bind HSA
B4						retain their ability to bind HSA
B5						retain their ability to bind HSA
